Where no end group is shown, it is not given here. [ ]: non-standard residue; d: D form. pS = N[C@@H](COP(=O)(O)O)C(=O)O
Biological target: SUMO1 (UniProt P63165)
Chain of UniProt P63165 (P63165 1-97): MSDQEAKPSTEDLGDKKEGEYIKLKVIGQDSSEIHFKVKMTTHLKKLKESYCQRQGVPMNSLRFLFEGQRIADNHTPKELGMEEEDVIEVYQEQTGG

| Binder | rate of increase in anisotropy, real-time SUMOylation assay with SUMO1 [min⁻¹] |
| --- | --- |
| PLIKQEDIKPEPDFTIQYRNKIIDTAGCIVISDSEEEQG (also: FITC label, site not given here) [IE2 N-Terminal Domain (IE2-NTD), FITC labelled] | 0.00012 |
| PLIKQEDIKPEPDFTIQYRNKIIDTAGCIVI[pS]D[pS]EEEQG (also: FITC label, site not given here) [phosphorylated IE2-NTD (IE2-ppNTD)] | 0.00021 |
